Assay results reported in US20210115424A1 (University of California, published 2021).
Positions count from the first letter of the chain named. Names and notes keep the numbering of the source.

Experiments:
[1] = molecular target: ^NSpaA, N-terminal domain of SpaA (residues 30-194) containing the pilin motif with K190
[2] = molecular target: T1, SpaA derived sorting signal peptide KNAGFELPLTGGSGRI
T1 chain: KNAGFELPLTGGSGRI

[3] = molecular target: ^CSpaA, C-terminal domain of SpaA (residues 350-500) containing the LPLTG sorting signal
[4] = molecular target: T2, LPATG peptide KNAGFELPATGGSGRI
T2 chain: KNAGFELPATGGSGRI

[5] = molecular target: sorting signal peptide (quantitative HPLC assay of Table 2)
[6] = molecular target: T3, pilin motif peptide DGWLQDVHVYPKHQALS
T3 chain: DGWLQDVHVYPKHQALS

[7] = molecular target: the molecule itself; assay: X-ray crystallography (homodimer in the crystal)
[8] = molecular target: SpaA, soluble form (residues 30-500) lacking the N-terminal signal peptide and C-terminal membrane anchor domain

B1: SrtA^2M N228A variant (protein)
chain: NNARQARVAQSYENSYEVDSPAVRDSVLEAARQYNTSVVGFPILGPGLNRASKNSGPYLDYLQQLNPQRAERPVIASISIPTIDAHLPIYHGTDTATLEHGLGHLYGSALPVGGTGTHPVITGHSGLANATLFDNLEDVKEHDPIYITVQGETLKYEVDAINVVLPEDTKLLAPDPNKDQITLITCTPYAVASHRLLVRAHRVDLDPNDPNLTQTGTKIWQ
transpeptidation in vitro (ligation of ^NSpaA and ^CSpaA, SDS-PAGE) [1]: defective in transpeptidation in vitro, as no isopeptide linked SpaA-SpaA product was produced even after 48 hours
hydrolysis of SpaApep (HPLC-based assay, SrtA^2M set as 100%) [2]: none of the mutants exhibited any significant defect in cleaving the LPXTG (SEQ ID NO. 5) motif

B2: CdSrtA^3M (CdSrtA D81G/W83G/N85A triple mutant) (protein)
chain: B1 chain with N49A, A192N
cross-linked ^NSpaAx^CSpaA product after 24 hour incubation, relative to CdSrtA^2M (gel densitometry) [3]: 35% more product than CdSrtA^2M
cross-linked ^NSpaAx^CSpaA product after 24 hour incubation, relative to CdSrtA^WT (gel densitometry) [3]: 10.6-fold more cross-linked ^NSpaAx^CSpaA product than CdSrtA^WT
hydrolysis of LPATG peptide (HPLC) [4]: CdSrtA^3M is unable to process any significant amount of peptide
labeling of ^NSpaA with the sorting signal peptide (MALDI-MS) [1]: >95% of ^NSpaA is labeled with the peptide
Km (M) × 10^-4 [5]: 8e-05 M
Vmax (s^-1) × 10^-9 [5]: 1.4e-09 s⁻¹
kcat (s^-1) × 10^-5 [5]: 5.7e-05 s⁻¹
kcat/kM [5]: 0.7 M⁻¹ s⁻¹
ligation of the pilin motif peptide to ^CSpaA or to the sorting signal peptide (MALDI-MS) [6]: In both instances, no detectable product was observed
HPLC-based sorting signal cleavage assay [2]: the CdSrtA^3M triple mutant exhibits the highest level of activity in a HPLC-based sorting signal cleavage assay

B3: SrtA^2M S229A variant (protein)
chain: B1 chain with A192N, S193A
transpeptidation in vitro (ligation of ^NSpaA and ^CSpaA, SDS-PAGE) [1]: defective in transpeptidation in vitro, as no isopeptide linked SpaA-SpaA product was produced even after 48 hours
hydrolysis of SpaApep (HPLC-based assay, SrtA^2M set as 100%) [2]: none of the mutants exhibited any significant defect in cleaving the LPXTG (SEQ ID NO. 5) motif

B4: SrtA^2M (residues 37-257 of CdSrtA with D81G/W83G lid mutations) (protein)
chain: B1 chain with A192N
Vmax of hydrolysis kinetics (HPLC-based assay, SpaApep cleavage) [2]: 6.3 µM/h

B5: SrtA^2M N165A variant (protein)
chain: B1 chain with N129A, A192N
transpeptidation in vitro (ligation of ^NSpaA and ^CSpaA, SDS-PAGE) [1]: this mutant retained near wild-type activity
hydrolysis of SpaApep (HPLC-based assay, SrtA^2M set as 100%) [2]: none of the mutants exhibited any significant defect in cleaving the LPXTG (SEQ ID NO. 5) motif

B6: SrtA^2M Y225A variant (protein)
chain: B1 chain with Y189A, A192N
transpeptidation in vitro (ligation of ^NSpaA and ^CSpaA, SDS-PAGE) [1]: had impaired transpeptidation activity as well, but to a lesser extent than the S229A and N228A mutants
hydrolysis of SpaApep (HPLC-based assay, SrtA^2M set as 100%) [2]: none of the mutants exhibited any significant defect in cleaving the LPXTG (SEQ ID NO. 5) motif

B7: Corynebacterium diphtheriae pilus-specific sortase SrtA, soluble catalytic domain fragment (residues 37-257), SrtA^WT (enzyme)
chain: B1 chain with G45D, G47W, A192N
notes: The His6-SUMO or His/TEV tag was removed after purification; also called CdSrtA^WT; Cd-SrtA
Vmax of hydrolysis kinetics (HPLC-based assay, SpaApep cleavage) [2]: 5.5 µM/h
binding result [7]: binds

B8: ΔSrtA^2M (SrtA^2M with the H1 helix, residues 37-54, removed) (protein)
chain: DSPAVRDSVLEAARQYNTSVVGFPILGPGLNRASKNSGPYLDYLQQLNPQRAERPVIASISIPTIDAHLPIYHGTDTATLEHGLGHLYGSALPVGGTGTHPVITGHSGLANATLFDNLEDVKEHDPIYITVQGETLKYEVDAINVVLPEDTKLLAPDPNKDQITLITCTPYAVNSHRLLVRAHRVDLDPNDPNLTQTGTKIWQ
in vitro SpaA pilus polymerization (SDS-PAGE) [8]: the removal of the H1 helix in the SrtA^2M enzyme also abrogates pilus polymerization
Vmax of hydrolysis kinetics (HPLC-based assay, SpaApep cleavage) [2]: 6.3 µM/h

B9: CdSrtA^Δ (CdSrtA active truncated variant with nine lid residues … deleted) (protein)
chain: NNARQARVAQSYENSYEVDSPAVRDSVLEAARQYNTSVVGFPSKNSGPYLDYLQQLNPQRAERPVIASISIPTIDAHLPIYHGTDTATLEHGLGHLYGSALPVGGTGTHPVITGHSGLANATLFDNLEDVKEHDPIYITVQGETLKYEVDAINVVLPEDTKLLAPDPNKDQITLITCTPYAVNSHRLLVRAHRVDLDPNDPNLTQTGTKIWQ
Km (M) × 10^-4 [5]: 0.00016 M
Vmax (s^-1) × 10^-9 [5]: 1e-08 s⁻¹
kcat (s^-1) × 10^-5 [5]: 0.0004 s⁻¹
kcat/kM [5]: 2.5 M⁻¹ s⁻¹

B10: Staphylococcus aureus sortase A, wild type (protein)
chain: QAKPQIPKDKSKVAGYIEIPDADIKEPVYPGPATPEQLNRGVSFAEENESLDDQNISIAGHTFIDRPNYQFTNLKAAKKGSMVYFKVGNETRKYKMTSIRDVKPTDVGVLDEQKGKDKQLTLITCDDYNEKTGVWEKRKIFVATEVK
hydrolysis of LPATG peptide (HPLC) [4]: SaSrtA robustly hydrolyzes the LPATG (SEQ ID NO. 5) peptide, as expected

B11: Staphylococcus aureus sortase A improved variant 4M (P94S/D160N/D165A/K196T) (protein)
chain: B10 chain with P35S, D101N, D106A, K137T
hydrolysis of LPATG peptide (HPLC) [4]: almost entirely hydrolyzes the full length peptide after 24 hrs
